Measurements: patent US20160297891A1 (Zymeworks, published 2016)

Experiments:
[1] = target: T1, HER2 extracellular domain (soluble analyte in SPR) (human); assay: SPR (Biacore T200), variant captured on anti-human Fc, Her2 injected, single cycle kinetics, 25 C
[2] = target: T1, HER2 extracellular domain (soluble …); assay: SPR, the reference itself
[3] = target: T1, HER2 extracellular domain (soluble …); assay: SPR, standard deviation of KD

- Kd [1]: 14.9 nM
- KD_wt/KD_var [2]: 1 fold
- STEDEV KD [3]: 4.2 nM
B1: v4182, monovalent (one-armed) anti-HER2 antibody with a Fab derived from pertuzumab on chain A (antibody, IgG1)
heavy: EVQLVESGGGLVQPGGSLRLSCAASGFTFTDYTMDWVRQAPGKGLEWVADVNPNSGGSIYNQRFKGRFTLSVDRSKNTLYLQMNSLRAEDTAVYYCARNLGPSFYFDYWGQGTLVTVSSASTKGPSVFPLAPSSKSTSGGTAALGCLVKDYFPEPVTVSWNSGALTSGVHTFPAVLQSSGLYSLSSVVTVPSSSLGTQTYICNVNHKPSNTKVDKKVEPKSCDKTHTCPPCPAPELLGGPSVFLFPPKPKDTLMISRTPEVTCVVVDVSHEDPEVKFNWYVDGVEVHNAKTKPREEQYNSTYRVVSVLTVLHQDWLNGKEYKCKVSNKALPAPIEKTISKAKGQPREPQVYVYPPSRDELTKNQVSLTCLVKGFYPSDIAVEWESNGQPENNYKTTPPVLDSDGSFALVSKLTVDKSRWQQGNVFSCSVMHEALHNHYTQKSLSLSPG
chain: not shown
light: not shown
notes: also called OA-pert
